According to patent publication US20140274782A1, “AFFINITY REAGENTS AND METHODS FOR DETECTION, PURIFICATION, AND PROTEOMIC ANALYSIS OF METHYLATED PROTEINS” (The Board of Trustees of the Leland Stanford Junior …, priority 2013, published 2014):

T1: G9a and GLP (Homo sapiens, UniProt Q96KQ7+Q9H9B1)
T1 sequence (Q96KQ7 2-1210 limits assumed): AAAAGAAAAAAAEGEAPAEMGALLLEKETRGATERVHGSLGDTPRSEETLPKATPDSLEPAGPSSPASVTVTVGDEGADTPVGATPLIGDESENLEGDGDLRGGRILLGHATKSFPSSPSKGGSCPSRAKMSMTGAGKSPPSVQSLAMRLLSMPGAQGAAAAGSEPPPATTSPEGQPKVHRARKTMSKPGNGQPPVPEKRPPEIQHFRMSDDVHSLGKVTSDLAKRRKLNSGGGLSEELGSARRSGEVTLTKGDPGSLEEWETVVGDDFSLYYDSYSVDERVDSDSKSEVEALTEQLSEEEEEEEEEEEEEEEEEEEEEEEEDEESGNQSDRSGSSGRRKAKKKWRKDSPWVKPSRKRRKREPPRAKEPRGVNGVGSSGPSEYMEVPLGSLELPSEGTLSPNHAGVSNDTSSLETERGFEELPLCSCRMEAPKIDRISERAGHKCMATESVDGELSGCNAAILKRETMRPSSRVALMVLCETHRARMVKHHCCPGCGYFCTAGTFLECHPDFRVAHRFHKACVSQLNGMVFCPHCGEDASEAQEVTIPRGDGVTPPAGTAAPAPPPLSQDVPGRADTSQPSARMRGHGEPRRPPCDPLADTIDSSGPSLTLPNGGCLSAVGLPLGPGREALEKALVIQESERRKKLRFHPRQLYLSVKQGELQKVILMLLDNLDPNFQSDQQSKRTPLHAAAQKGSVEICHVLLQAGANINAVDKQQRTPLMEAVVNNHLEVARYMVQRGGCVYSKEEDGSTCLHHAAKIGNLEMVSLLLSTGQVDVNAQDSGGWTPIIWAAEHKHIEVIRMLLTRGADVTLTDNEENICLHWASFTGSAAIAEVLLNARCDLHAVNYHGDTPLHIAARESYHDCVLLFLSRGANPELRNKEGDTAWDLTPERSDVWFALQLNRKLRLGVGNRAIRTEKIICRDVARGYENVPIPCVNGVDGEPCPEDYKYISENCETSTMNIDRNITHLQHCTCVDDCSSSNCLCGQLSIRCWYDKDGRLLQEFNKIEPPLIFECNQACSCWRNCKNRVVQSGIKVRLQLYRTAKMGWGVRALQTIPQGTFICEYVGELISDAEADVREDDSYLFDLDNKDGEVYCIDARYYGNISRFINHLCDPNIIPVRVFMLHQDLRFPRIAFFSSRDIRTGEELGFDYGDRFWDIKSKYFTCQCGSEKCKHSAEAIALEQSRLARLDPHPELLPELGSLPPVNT
T1 sequence (Q9H9B1 2-1298 limits assumed): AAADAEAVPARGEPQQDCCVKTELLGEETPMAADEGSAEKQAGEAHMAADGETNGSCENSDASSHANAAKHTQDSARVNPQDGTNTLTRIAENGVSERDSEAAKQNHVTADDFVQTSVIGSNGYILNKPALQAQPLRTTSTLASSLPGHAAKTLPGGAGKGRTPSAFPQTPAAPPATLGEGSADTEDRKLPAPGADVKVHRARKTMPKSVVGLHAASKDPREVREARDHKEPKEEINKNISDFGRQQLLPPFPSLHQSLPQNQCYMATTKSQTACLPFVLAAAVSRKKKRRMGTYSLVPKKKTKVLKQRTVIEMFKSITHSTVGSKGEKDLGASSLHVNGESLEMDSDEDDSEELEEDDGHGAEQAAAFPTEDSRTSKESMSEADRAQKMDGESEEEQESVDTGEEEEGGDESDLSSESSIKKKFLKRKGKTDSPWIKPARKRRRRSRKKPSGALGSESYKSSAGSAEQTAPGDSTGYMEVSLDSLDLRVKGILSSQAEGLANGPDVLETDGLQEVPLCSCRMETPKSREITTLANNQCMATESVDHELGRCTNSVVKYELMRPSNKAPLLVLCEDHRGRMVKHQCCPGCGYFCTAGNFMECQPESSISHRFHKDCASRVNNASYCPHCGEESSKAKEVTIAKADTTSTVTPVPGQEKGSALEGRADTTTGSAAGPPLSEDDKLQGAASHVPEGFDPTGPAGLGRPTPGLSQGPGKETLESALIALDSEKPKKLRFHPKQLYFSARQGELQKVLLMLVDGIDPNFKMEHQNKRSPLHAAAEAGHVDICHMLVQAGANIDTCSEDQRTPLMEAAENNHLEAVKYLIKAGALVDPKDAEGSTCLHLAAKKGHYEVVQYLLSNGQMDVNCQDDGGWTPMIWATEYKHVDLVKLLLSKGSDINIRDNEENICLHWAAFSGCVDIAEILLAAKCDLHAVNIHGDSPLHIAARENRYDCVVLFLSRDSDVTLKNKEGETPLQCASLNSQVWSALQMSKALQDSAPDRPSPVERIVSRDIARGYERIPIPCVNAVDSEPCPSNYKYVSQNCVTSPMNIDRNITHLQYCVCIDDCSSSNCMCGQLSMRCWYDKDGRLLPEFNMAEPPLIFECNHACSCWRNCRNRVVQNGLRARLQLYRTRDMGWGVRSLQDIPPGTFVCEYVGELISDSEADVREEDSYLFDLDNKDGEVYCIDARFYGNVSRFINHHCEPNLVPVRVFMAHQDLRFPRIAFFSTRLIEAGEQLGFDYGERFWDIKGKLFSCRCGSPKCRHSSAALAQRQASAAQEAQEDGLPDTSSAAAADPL


Key:
[1] = system: 3×MBT domain of L3MBTL1; assay: Triple SILAC pull-down, 3xMBT/3xMBTD355N ratio (cytoplasmic, nuclear and chromatin fractions of 293T cells); assay type: binding, human; conditions: SILAC ratio; for Protein Ratios 3xMBT/D355N: pull-down by 3xMBT vs 3xMBTD355N, 293T cells; for 3xMBT/D355N UNC Heavy / 3xMBT/D355N UNC Light: pull-down 3xMBT vs 3xMBTD355N; for 3xMBT/D355N UNC Heavy: experiment with UNC0638 in heavy SILAC media; for 3xMBT/D355N UNC Light: experiment with UNC0638 in light SILAC media;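 as to all read-outs here: proteins quantified with MaxQuant, requiring at least two unique peptides and quantification in both label directions, normalized to the mean of proteins from a digested loading control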
[2] = molecular target: T1, G9a and GLP; assay: Triple SILAC pull-down after UNC0638 treatment of 293T cells, DMSO/UNC0638 ratio of protein captured by 3×MBT; assay type: cell-based; parameters: endogenous in cells; host or cells: HEK 293T; conditions: for Protein Ratios DMSO/UNC0638: SILAC ratio of protein captured by 3xMBT, 293T cells treated 24 hours with UNC0638 at 2.5 μM or DMSO; for Relative to UNC0638 UNC Heavy / Relative to UNC0638 UNC Light: SILAC ratio DMSO/UNC0638 of protein pulled down with 3xMBT; for Relative to UNC0638 UNC Heavy: UNC0638 in heavy SILAC media; for Relative to UNC0638 UNC Light: UNC0638 in light SILAC media; for Relative to UNC0638 Average: average of UNC Light and UNC Heavy experiments;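 as to all read-outs here: mass spectrometry (Q-Exactive) SILAC quantitation, DMSO/UNC0638 ratio computed after subtracting 3×MBTD355N mutant pull-down background, only proteins with at least twofold 3×MBT over mutant signal considered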

Row | Molecule | Protein Ratios DMSO/UNC0638 [2] | Relative to UNC0638 UNC Heavy [2] | Relative to UNC0638 UNC Light [2] | Relative to UNC0638 Average [2] | Protein Ratios 3xMBT/D355N [1] | 3xMBT/D355N UNC Heavy [1] | 3xMBT/D355N UNC Light [1]
1 | DDB1- and CUL4-associated factor 7 (protein, UniProt P61962 1-342, looked up) DDB1- and CUL4-associated …: MSLHGKRKEIYKYEAPWTVYAMNWSVRPDKRFRLALGSFVEEYNNKVQLVGLDEESSEFICRNTFDHPYPTTKLMWIPDTKGVYPDLLATSGDYLRVWRVGETETRLECLLNNNKNSDFCAPLTSFDWNEVDPYLLGTSSIDTTCTIWGLETGQVLGRVNLVSGHVKTQLIAHDKEVYDIAFSRAGGGRDMFASVGADGSVRMFDLRHLEHSTIIYEDPQHHPLLRLCWNKQDPNYLATMAMDGMEVVILDVRVPCTPVARLNNHRACVNGIAWAPHSSCHICTAADDHQALIWDIQQMPRAIEDPILAYTAEGEINNVQWASTQPDWIAICYNNCLEILRV | 1.5 |  |  |  | 2.8 |  | 
2 | Peptidyl-prolyl cis-trans isomerase-like 4 (protein, UniProt Q8WUA2 1-492, looked up) Peptidyl-prolyl cis-trans …: MAVLLETTLGDVVIDLYTEERPRACLNFLKLCKIKYYNYCLIHNVQRDFIIQTGDPTGTGRGGESIFGQLYGDQASFFEAEKVPRIKHKKKGTVSMVNNGSDQHGSQFLITTGENLDYLDGVHTVFGEVTEGMDIIKKINETFVDKDFVPYQDIRINHTVILDDPFDDPPDLLIPDRSPEPTREQLDSGRIGADEEIDDFKGRSAEEVEEIKAEKEAKTQAILLEMVGDLPDADIKPPENVLFVCKLNPVTTDEDLEIIFSRFGPIRSCEVIRDWKTGESLCYAFIEFEKEEDCEKAFFKMDNVLIDDRRIHVDFSQSVAKVKWKGKGGKYTKSDFKEYEKEQDKPPNLVLKDKVKPKQDTKYDLILDEQAEDSKSSHSHTSKKHKKKTHHCSEEKEDEDYMPIKNTNQDIYREMGFGHYEEEESCWEKQKSEKRDRTQNRSRSRSRERDGHYSNSHKSKYQTDLYERERSKKRDRSRSPKKSKDKEKSKYR | 1.4 |  |  |  | 4.0 |  | 
3 | CNN3 (protein, UniProt Q15417 1-329, looked up) Calponin-3: MTHFNKGPSYGLSAEVKNKIASKYDHQAEEDLRNWIEEVTGMSIGPNFQLGLKDGIILCELINKLQPGSVKKVNESSLNWPQLENIGNFIKAIQAYGMKPHDIFEANDLFENGNMTQVQTTLVALAGLAKTKGFHTTIDIGVKYAEKQTRRFDEGKLKAGQSVIGLQMGTNKCASQAGMTAYGTRRHLYDPKMQTDKPFDQTTISLQMGTNKGASQAGMLAPGTRRDIYDQKLTLQPVDNSTISLQMGTNKVASQKGMSVYGLGRQVYDPKYCAAPTEPVIHNGSQGTGTNGSEISDSDYQAEYPDEYHGEYQDDYPRDYQYSDQGIDY |  | 0.61 log base 2 | −0.15 log base 2 | 0.23 log base 2 |  | 2.36 log base 2 | 2.35 log base 2
4 | PPP1CB (protein, UniProt P62140 2-327, looked up) Serine/threonine-protein …: ADGELNVDSLITRLLEVRGCRPGKIVQMTEAEVRGLCIKSREIFLSQPILLELEAPLKICGDIHGQYTDLLRLFEYGGFPPEANYLFLGDYVDRGKQSLETICLLLAYKIKYPENFFLLRGNHECASINRIYGFYDECKRRFNIKLWKTFTDCFNCLPIAAIVDEKIFCCHGGLSPDLQSMEQIRRIMRPTDVPDTGLLCDLLWSDPDKDVQGWGENDRGVSFTFGADVVSKFLNRHDLDLICRAHQVVEDGYEFFAKRQLVTLFSAPNYCGEFDNAGGMMSVDETLMCSFQILKPSEKKAKYQYGGLNSGRPVTPPRTANPPKKR |  | 0.28 log base 2 | 0.18 log base 2 | 0.23 log base 2 |  | 2.35 log base 2 | 2.55 log base 2

The next lines start with results.

Row | Protein Ratios DMSO/UNC0638 [2] | Relative to UNC0638 UNC Heavy [2] | Relative to UNC0638 UNC Light [2] | Relative to UNC0638 Average [2] | Molecule | Protein Ratios 3xMBT/D355N [1] | 3xMBT/D355N UNC Heavy [1] | 3xMBT/D355N UNC Light [1]
5 |  | 0.46 log base 2 | 0.01 log base 2 | 0.23 log base 2 | SRP9 (protein, UniProt P49458 2-86, looked up) Signal recognition particle 9 …: PQYQTWEEFSRAAEKLYLADPMKARVVLKYRHSDGNLCVKVTDDLVCLVYKTDQAQDVKKIEKFHSQLMRLMVAKEARNVTMETE |  | 1.88 log base 2 | 1.52 log base 2
6 |  | 0.18 log base 2 | 0.29 log base 2 | 0.24 log base 2 | RCC1 (protein, UniProt P18754 2-421, looked up) Regulator of chromosome …: SPKRIAKRRSPPADAIPKSKKVKVSHRSHSTEPGLVLTLGQGDVGQLGLGENVMERKKPALVSIPEDVVQAEAGGMHTVCLSKSGQVYSFGCNDEGALGRDTSVEGSEMVPGKVELQEKVVQVSAGDSHTAALTDDGRVFLWGSFRDNNGVIGLLEPMKKSMVPVQVQLDVPVVKVASGNDHLVMLTADGDLYTLGCGEQGQLGRVPELFANRGGRQGLERLLVPKCVMLKSRGSRGHVRFQDAFCGAYFTFAISHEGHVYGFGLSNYHQLGTPGTESCFIPQNLTSFKNSTKSWVGFSGGQHHTVCMDSEGKAYSLGRAEYGRLGLGEGAEEKSIPTLISRLPAVSSVACGASVGYAVTKDGRVFAWGMGTNYQLGTGQDEDAWSPVEMMGKQLENRVVLSVSSGGQHTVLLVKDKEQS |  | 2.15 log base 2 | 2.25 log base 2
